In assay [1] the target is HLA-B*57:01. Kind of assay: IEDB peptide-MHC binding, purified MHC/competitive/radioactivity; filed as Kd, often an IC50 or EC50 that approximates it; ≥ and ≤ were set here for values at or beyond the usual limits of such assays.
For assay [2], the target named is HLA-B*58:01. Described as above.
In assay [3] the target is HLA-A*31:01. Described as above. The note with it: source organism: Dengue virus 3 Martinique/1243/1999.
The next assay deals with HLA-A*32:01. The description is as above.
For assay [4], the target named is HLA-B*18:01. As to the kind of experiment: IEDB peptide-MHC binding, purified MHC/competitive/fluorescence; filed as Kd, often an IC50 or EC50 that approximates it; ≥ and ≤ were set here for values at or beyond the usual limits of such assays.
The next assay deals with HLA-B*39:01. The assay is described as above.
Assay [5] concerns the target HLA-A*68:02. Described as above. To be noted: source organism: Vibrio cholerae 2740-80.
Assay [6] deals with HLA-B*46:01. The description is as above.
In the next assay the target is HLA-B*27:03. The assay is described as above.
In assay [7] the target is HLA-A*02:19. Described as above. The note with it: source organism: Vibrio cholerae 2740-80.
Assay [8] deals with HLA-A*26:01. The description is as above.
In assay [9] the target is HLA-A*03:01. The description is as above. The note with it: source organism: Vibrio cholerae 2740-80.
Assay [10] deals with HLA-A*02:12. The assay is described as above. To be noted: source organism: Vibrio cholerae 2740-80.
The next assay deals with HLA-B*51:01. Described as above.
For assay [11], the target named is HLA-A*68:02. Kind of assay: IEDB peptide-MHC binding, purified MHC/direct/fluorescence; filed as Kd, often an IC50 or EC50 that approximates it; ≥ and ≤ were set here for values at or beyond the usual limits of such assays.
The target of assay [12] is HLA-A*02:19. The description is as above. The note with it: source organism: Choclo virus.
Assay [13] addresses HLA-A*03:01. Described as above.
The target of a further assay is HLA-A*02:16. The assay is described as above. To be noted: source organism: Choclo virus.
In assay [14] the target is HLA-A*02:12. The assay is described as above. The note with it: source organism: Choclo virus.
Another assay deals with HLA-A*69:01. Kind of assay: IEDB peptide-MHC binding, purified MHC/competitive/fluorescence; filed as Kd, often an IC50 or EC50 that approximates it; ≥ and ≤ were set here for values at or beyond the usual limits of such assays. The note with it: source organism: Orthohantavirus sinnombreense.
Assay [15] has as its target HLA-A*02:01. The description is as above. To be noted: source organism: Orthohantavirus sinnombreense.
Assay [16] concerns the target HLA-B*15:01. The description is as above. The note with it: source organism: Orthohantavirus sinnombreense.
Assay [17] deals with HLA-B*58:01. The assay is described as above.
Assay [18] concerns the target HLA-A*01:01. Kind of assay: IEDB peptide-MHC binding, purified MHC/competitive/radioactivity; filed as Kd, often an IC50 or EC50 that approximates it; ≥ and ≤ were set here for values at or beyond the usual limits of such assays. The note with it: source organism: Dengue virus 2 Jamaica/1409/1983.
In assay [19] the target is HLA-A*26:01. Described as above. To be noted: source organism: Dengue virus 2 Jamaica/1409/1983.
The target in a further assay is HLA-A*30:02. The assay is described as above. To be noted: source organism: Dengue virus 2 Jamaica/1409/1983.
The target of the next assay is HLA-B*27:05. Kind of assay: IEDB peptide-MHC binding, purified MHC/direct/fluorescence; filed as Kd, often an IC50 or EC50 that approximates it; ≥ and ≤ were set here for values at or beyond the usual limits of such assays. The note with it: source organism: Shigella sonnei Ss046.
The target in assay [20] is HLA-A*02:01. Described as above. To be noted: source organism: Shigella sonnei Ss046.
For a further assay, the target named is HLA-B*40:01. The description is as above. The note with it: source organism: Shigella sonnei Ss046.
The target in assay [21] is HLA-B*18:01. The assay is described as above. The note with it: source organism: Shigella sonnei Ss046.
The target in assay [22] is HLA-B*46:01. Described as above. To be noted: source organism: Shigella sonnei Ss046.
In assay [23] the target is HLA-A*31:01. The assay is described as above. The note with it: source organism: Shigella sonnei Ss046.
Assay [24] has as its target HLA-B*15:01. Described as above. To be noted: source organism: Shigella sonnei Ss046.
The target in assay [25] is HLA-B*57:01. Described as above.
The target of another assay is HLA-A*11:01. The description is as above. To be noted: source organism: Shigella sonnei Ss046.
The next assay has as its target HLA-B*07:02. The assay is described as above. To be noted: source organism: Shigella sonnei Ss046.
Assay [26] addresses HLA-B*58:01. The assay is described as above. The note with it: source organism: Shigella sonnei Ss046.
The target in a further assay is HLA-B*15:17. The description is as above. The note with it: source organism: Shigella sonnei Ss046.
A further assay has as its target HLA-B*48:01. The description is as above. The note with it: source organism: Shigella sonnei Ss046.
Assay [27] has as its target HLA-A*01:01. Kind of assay: IEDB peptide-MHC binding, purified MHC/competitive/fluorescence; filed as Kd, often an IC50 or EC50 that approximates it; ≥ and ≤ were set here for values at or beyond the usual limits of such assays. To be noted: source organism: Paraglaciecola sp. T6c.
A further assay deals with HLA-C*05:01. As to the kind of experiment: IEDB peptide-MHC binding, purified MHC/direct/fluorescence; filed as Kd, often an IC50 or EC50 that approximates it; ≥ and ≤ were set here for values at or beyond the usual limits of such assays. The note with it: source organism: Homo sapiens.
Where [28] appears, read: source organism: Dengue virus 2 Jamaica/1409/1983.
[29] abbreviates: source organism: Dengue virus 3 Martinique/1243/1999.
Where [30] appears, read: source organism: Dengue virus 1 Brazil/97-11/1997.
[31] abbreviates: source organism: Vibrio cholerae 2740-80.
Setting [32] is: source organism: Orthohantavirus sinnombreense.
The mark [33] stands for this setting: source organism: Shigella sonnei Ss046.
The mark [34] stands for this setting: source organism: Dengue virus 1 Singapore/S275/1990.
[35] abbreviates: source organism: Francisella tularensis subsp. tularensis FSC198.

Experimental findings from the Immune Epitope Database (IEDB) are described below.

Regarding QSSITEAELT, the Kd in the assay with HLA-B*57:01 [1] (setting [28]) turned out to be 0.351 µM; with HLA-B*58:01 [2] (setting [28]), 0.436 µM.
As for AASAAQRRGR, the Kd in the assay with HLA-A*31:01 [3] was 0.165 µM; with HLA-B*58:01 [2] (setting [29]), 0.0187 µM.
As for NASDRMGMGV, the results for the Kd in the assay with HLA-B*57:01 [1] (setting [29]) and in the assay with HLA-B*58:01 [2] (setting [29]) were 0.722 µM and 0.209 µM, respectively.
For the sequence KSWPLNEGI, the figures for the Kd in the assay with HLA-B*58:01 [2] (setting [30]) and in the assay with HLA-A*32:01 (setting [30]) were 0.0703 µM and 0.34 µM, respectively.
Take KQLPPLAAW: the Kd with HLA-B*18:01 [4] (setting [31]) was 6.33 µM; with HLA-B*39:01 (setting [31]), ≥ 20 µM; with HLA-A*68:02 [5], ≥ 20 µM; with HLA-B*46:01 [6] (setting [31]), ≥ 20 µM; in the assay with HLA-B*27:03 (setting [31]), ≥ 20 µM; in the assay with HLA-A*02:19 [7] it was ≥ 20 µM. In addition, the Kd in the assay with HLA-A*26:01 [8] (setting [31]), with HLA-A*03:01 [9], in the assay with HLA-A*02:12 [10] and with HLA-B*51:01 (setting [31]) was ≥ 20 µM each time.
GSFRKICGF: the Kd with HLA-A*68:02 [11] (source organism: Choclo virus), with HLA-A*02:19 [12], with HLA-A*03:01 [13] (source organism: Choclo virus), in the assay with HLA-A*02:16, with HLA-A*02:12 [14] and in the assay with HLA-A*69:01 was ≥ 20 µM in each case. The Kd in the assay with HLA-A*02:01 [15], with HLA-B*18:01 [4] (setting [32]), in the assay with HLA-B*39:01 (setting [32]), in the assay with HLA-B*46:01 [6] (setting [32]), with HLA-B*27:03 (setting [32]) and in the assay with HLA-A*26:01 [8] (setting [32]) was ≥ 20 µM each time. For the same sequence, the results for the Kd with HLA-B*15:01 [16], in the assay with HLA-B*51:01 (setting [32]) and with HLA-B*58:01 [17] (setting [32]) were ≥ 20 µM, ≥ 20 µM and 0.251 µM, respectively.
With ITASILLWY, the Kd turned out to be 0.0472 µM in the assay with HLA-A*01:01 [18], 0.00566 µM with HLA-A*26:01 [19], 0.0028 µM in the assay with HLA-B*58:01 [2] (setting [28]) and 0.55 µM with HLA-A*30:02.
For VLDMGDPVK, the Kd with HLA-B*27:05, with HLA-A*02:01 [20], with HLA-B*40:01, in the assay with HLA-B*18:01 [21], with HLA-A*68:02 [11] (setting [33]) and with HLA-B*46:01 [22] was ≥ 20 µM each time. The Kd with HLA-A*03:01 [13] (setting [33]) is 2.09 µM; in the assay with HLA-A*31:01 [23], ≥ 20 µM; with HLA-B*15:01 [24], ≥ 20 µM; with HLA-B*57:01 [25] (setting [33]), ≥ 20 µM; with HLA-A*11:01 it was 7 µM; with HLA-B*07:02, ≥ 20 µM. Moreover, the Kd in the assay with HLA-B*58:01 [26] is ≥ 20 µM; with HLA-B*15:17, ≥ 20 µM; with HLA-B*48:01, ≥ 20 µM; with HLA-A*01:01 [27] it was 2.59 µM.
KSLIISFAF had a Kd with HLA-B*58:01 [17] (source organism: Bacillus anthracis str. A0488) of 0.391 µM.
RAQDPPPEL: the Kd with HLA-C*05:01 is 0.663 µM.
As for LSAAIGKAW, the Kd in the assay with HLA-B*57:01 [1] (setting [34]) amounted to 0.0019 µM; with HLA-B*58:01 [2] (setting [34]), 0.00292 µM.
For GVLIGGLEW, the Kd in the assay with HLA-B*58:01 [17] (source organism: Influenza A virus (A/parakeet/Narita/92A/98(H9N2))) came out at 0.552 µM.
On to VSSVNMISRM, for which the Kd in the assay with HLA-B*57:01 [1] (setting [28]) came to 0.626 µM; with HLA-B*58:01 [2] (setting [28]), 0.698 µM.
Regarding KTVWFVPSI, the values for the dissociation constant (Kd) with HLA-B*58:01 [2] (setting [28]) and in the assay with HLA-A*32:01 (setting [28]) were 0.00432 µM and 0.00669 µM, respectively.
On to ATLLVWHTW, for which the values for the Kd in the assay with HLA-B*57:01 [1] (setting [29]), with HLA-B*58:01 [2] (setting [29]) and with HLA-A*32:01 (setting [29]) were 0.0021 µM, 0.00169 µM and 0.00268 µM, respectively.
With ISTHIGFSF, the Kd with HLA-B*57:01 [25] (source organism: Francisella tularensis subsp. holarctica LVS) was 0.125 µM; with HLA-B*46:01 [6] (setting [35]), ≥ 20 µM; with HLA-B*58:01 [17] (setting [35]) it was 0.0015 µM.
